Assay results: paper PMC6764942, “TFF3 interacts with LINGO2 to regulate EGFR activation for protection against colitis and gastrointestinal helminths” (Nature Communications, 2019)
Where no end group is shown, it is not given here.

Biological target: T1, LINGO2-GFP on HEK293 transfectants (mouse, UniProt Q3URE9 28-606)
T1 construct: LINGO2, mouse, from pCMV3-mLINGO2-GFP; also called GFP-LINGO2; pCMV3-mLINGO2-GFP; source: HEK293, transfected, on cells
T1 sequence (looked up): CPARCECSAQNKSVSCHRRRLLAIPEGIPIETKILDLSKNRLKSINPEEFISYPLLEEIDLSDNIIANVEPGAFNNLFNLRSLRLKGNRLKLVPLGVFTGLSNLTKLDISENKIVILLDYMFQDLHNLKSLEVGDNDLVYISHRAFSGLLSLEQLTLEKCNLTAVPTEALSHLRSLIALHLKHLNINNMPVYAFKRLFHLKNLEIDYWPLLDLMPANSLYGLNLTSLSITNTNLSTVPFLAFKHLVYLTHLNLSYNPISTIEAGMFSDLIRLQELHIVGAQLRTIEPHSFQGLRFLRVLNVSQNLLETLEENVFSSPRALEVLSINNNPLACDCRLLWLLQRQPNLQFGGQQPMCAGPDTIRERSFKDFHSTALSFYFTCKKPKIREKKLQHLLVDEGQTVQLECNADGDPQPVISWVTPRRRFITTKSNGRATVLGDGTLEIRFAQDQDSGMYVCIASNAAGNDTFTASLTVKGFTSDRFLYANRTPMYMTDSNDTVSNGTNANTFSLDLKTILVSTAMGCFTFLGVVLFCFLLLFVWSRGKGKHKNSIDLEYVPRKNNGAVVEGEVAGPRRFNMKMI
Test: flow cytometry on cells; HEK293 transfected with GFP-labeled receptors, 24 h later incubated with PBS or 3 ug Alexa Fluor 647 labeled soluble ligand for 16 h at 4 C; double positive (GFP and AF-647) cells counted
Conditions: one partner purified

B1: TFF3-647 (murine recombinant TFF3 labeled with Alexa Fluor 647) (ligand, mouse, UniProt Q62395 23-81, looked up)
chain: ADYVGLSPSQCMVPANVRVDCGYPSVTSEQCNNRGCCFDSSIPNVPWCFKPLQETECTF
modifications: ends and bridges not checked; also: Alexa Fluor 647 label, site not given here
notes: Trefoil factor 3, mouse, recombinant (Peprotech); A commercial recombinant TFF3 is probably the mature protein (surmise); source: bought: Peprotech
fold increase in double-positive cells compared to PBS or IL-2-647: 12 fold
